We go through 3 proteins from patent publication US20130281671.

Sequences and labels used below:
B1: soluble form of human PC7 (amino acids 1-663) (protein)
chain: LAGTGGPDGQGTGGPSWAVHLESLEGDGEEETLEQQADALAQAAGLVNAGRIGELQGHYLFVQPAGHRPALEVEAIRQQVEAVLAGHEAVRWHSEQRLLRRAKRSVHFNDPKYPQQWHLNNRRSPGRDINVTGVWERNVTGRGVTVVVVDDGVEHTIQDIAPNYSPEGSYDLNSNDPDPMPHPDVENGNHHGTRCAGEIAAVPNNSFCAVGVAYGSRIAGIRVLDGPLTDSMEAVAFNKHYQINDIYSCSWGPDDDGKTVDGPHQLGKAALQHGVIAGRQGFGSIFVVASGNGGQHNDNCNYDGYANSIYTVTIGAVDEEGRMPFYAEECASMLAVTFSGGDKMLRSIVTTDWDLQKGTGCTEGHTGTSAAAPLAAGMIALMLQVRPCLTWRDVQHIIVFTATRYEDRRAEWVTNEAGFSHSHQHGFGLLNAWRLVNAAKIWTSVPYLASYVSPVLKENKAIPQSPRSLEVLWNVSRMDLEMSGLKTLEHVAVTVSITHPRRGSLELKLFCPSGMMSLIGAPRSMDSDPNGFNDWTFSTVRCWGERARGTYRLVIRDVGDESFQVGILRQWQLTLYGSVWSAVDIRDRQRLLESAMSGKYLHDDFALPCPPGLKIPEEDGYTITPN
B2: human PC5 (proprotein convertase subtilisin/kexin type 5), expressed from pSYN-PC5-003 (protein)
chain: RVYTNHWAVKIAGGFPEANRIASKYGFINIGQIGALKDYYHFYHSRTIKRSVISSRGTHSFISMEPKVEWIQQQVVKKRTKRDYDFSRAQSTYFNDPKWPSMWYMHCSDNTHPCQSDMNIEGAWKRGYTGKNIVVTILDDGIERTHPDLMQNYDALASCDVNGNDLDPMPRYDASNENKHGTRCAGEVAAAANNSHCTVGIAFNAKIGGVRMLDGDVTDMVEAKSVSFNPQHVHIYSASWGPDDDGKTVDGPAPLTRQAFENGVRMGRRGLGSVFVWASGNGGRSKDHCSCDGYTNSIYTISISSTAESGKKPWYLEECSSTLATTYSSGESYDKKIITTDLRQRCTDNHTGTSASAPMAAGIIALALEANPFLTWRDVQHVIVRTSRAGHLNANDWKTNAAGFKVSHLYGFGLMDAEAMVMEAEKWTTVPRQHVCVESTDRQIKTIRPNSAVRSIYKASGCSDNPNRHVNYLEHVVVRITITHPRRGDLAIYLTSPSGTRSQLLANRLFDHSMEGFKNWEFMTIHCWGERAAGDWVLEVYDTPSQLRNFKTPGKLKEWSLVLYGTSVQPYSPTNEFPKVERFRYSRVEDPTDDYGTEDYAGPCDPECSEVGCDGPGPDHCNDCLHYYYKLKNNTRICVSSCPPGHYHADKKRCRKCAPNCESCFGSHGDQCMSCKYGYFLNEETNSCVTHCPDGSYQDTKKNLCRKCSENCKTCTEFHNCTECRDGLSLQGSRCSVSCEDGRYFNGQDCQPCHRFCATCAGAGADGCINCTEGYFMEDGRCVQSCSISYYFDHSSENGYKSCKKCDISCLTCNGPGFKNCTSCPSGYLLDLGMCQMGAICKDATEESWAEGGFCMLVKKNNLCQRKVLQQLCCKTCTFQG
B3: soluble form of yeast Kex2 (amino acids 1-675) (protein)
chain: LVSSQQIPLKDHTSRQYFAVESNETLSRLEEMHPNWKYEHDVRGLPNHYVFSKELLKLGKRSSLEELQGDNNDHILSVHDLFPRNDLFKRLPVPAPPMDSSLLPVKEAEDKLSINDPLFERQWHLVNPSFPGSDINVLDLWYNNITGAGVVAAIVDDGLDYENEDLKDNFCAEGSWDFNDNTNLPKPRLSDDYHGTRCAGEIAAKKGNNFCGVGVGYNAKISGIRILSGDITTEDEAASLIYGLDVNDIYSCSWGPADDGRHLQGPSDLVKKALVKGVTEGRDSKGAIYVFASGNGGTRGDNCNYDGYTNSIYSITIGAIDHKDLHPPYSEGCSAVMAVTYSSGSGEYIHSSDINGRCSNSHGGTSAAAPLAAGVYTLLLEANPNLTWRDVQYLSILSAVGLEKNADGDWRDSAMGKKYSHRYGFGKIDAHKLIEMSKTWENVNAQTWFYLPTLYVSQSTNSTEETLESVITISEKSLQDANFKRIEHVTVTVDIDTEIRGTTTVDLISPAGIISNLGVVRPRDVSSEGFKDWTFMSVAHWGENGVGDWKIKVKTTENGHRIDFHSWRLKLFGESIDSSKTETFVFGNDKEEVEPAATESTVSQYSASSTSISISATSTSSISIGVETSAIPQTTTASTDPDSDPNTPKKLSSPRQ

The target of this data set is rFVIIIBDD-Fc-Fc (B-domain deleted Factor VIII-Fc fused to a second Fc through a (GGGGS)4 linker; expressed from pSYN-FVIII-041).
Chain of rFVIIIBDD-Fc-Fc (B-domain deleted Factor VIII-Fc fused to a second Fc through a (GGGGS)4 linker; expressed from pSYN-FVIII-041) (chain, as listed by the source, stated change not applied): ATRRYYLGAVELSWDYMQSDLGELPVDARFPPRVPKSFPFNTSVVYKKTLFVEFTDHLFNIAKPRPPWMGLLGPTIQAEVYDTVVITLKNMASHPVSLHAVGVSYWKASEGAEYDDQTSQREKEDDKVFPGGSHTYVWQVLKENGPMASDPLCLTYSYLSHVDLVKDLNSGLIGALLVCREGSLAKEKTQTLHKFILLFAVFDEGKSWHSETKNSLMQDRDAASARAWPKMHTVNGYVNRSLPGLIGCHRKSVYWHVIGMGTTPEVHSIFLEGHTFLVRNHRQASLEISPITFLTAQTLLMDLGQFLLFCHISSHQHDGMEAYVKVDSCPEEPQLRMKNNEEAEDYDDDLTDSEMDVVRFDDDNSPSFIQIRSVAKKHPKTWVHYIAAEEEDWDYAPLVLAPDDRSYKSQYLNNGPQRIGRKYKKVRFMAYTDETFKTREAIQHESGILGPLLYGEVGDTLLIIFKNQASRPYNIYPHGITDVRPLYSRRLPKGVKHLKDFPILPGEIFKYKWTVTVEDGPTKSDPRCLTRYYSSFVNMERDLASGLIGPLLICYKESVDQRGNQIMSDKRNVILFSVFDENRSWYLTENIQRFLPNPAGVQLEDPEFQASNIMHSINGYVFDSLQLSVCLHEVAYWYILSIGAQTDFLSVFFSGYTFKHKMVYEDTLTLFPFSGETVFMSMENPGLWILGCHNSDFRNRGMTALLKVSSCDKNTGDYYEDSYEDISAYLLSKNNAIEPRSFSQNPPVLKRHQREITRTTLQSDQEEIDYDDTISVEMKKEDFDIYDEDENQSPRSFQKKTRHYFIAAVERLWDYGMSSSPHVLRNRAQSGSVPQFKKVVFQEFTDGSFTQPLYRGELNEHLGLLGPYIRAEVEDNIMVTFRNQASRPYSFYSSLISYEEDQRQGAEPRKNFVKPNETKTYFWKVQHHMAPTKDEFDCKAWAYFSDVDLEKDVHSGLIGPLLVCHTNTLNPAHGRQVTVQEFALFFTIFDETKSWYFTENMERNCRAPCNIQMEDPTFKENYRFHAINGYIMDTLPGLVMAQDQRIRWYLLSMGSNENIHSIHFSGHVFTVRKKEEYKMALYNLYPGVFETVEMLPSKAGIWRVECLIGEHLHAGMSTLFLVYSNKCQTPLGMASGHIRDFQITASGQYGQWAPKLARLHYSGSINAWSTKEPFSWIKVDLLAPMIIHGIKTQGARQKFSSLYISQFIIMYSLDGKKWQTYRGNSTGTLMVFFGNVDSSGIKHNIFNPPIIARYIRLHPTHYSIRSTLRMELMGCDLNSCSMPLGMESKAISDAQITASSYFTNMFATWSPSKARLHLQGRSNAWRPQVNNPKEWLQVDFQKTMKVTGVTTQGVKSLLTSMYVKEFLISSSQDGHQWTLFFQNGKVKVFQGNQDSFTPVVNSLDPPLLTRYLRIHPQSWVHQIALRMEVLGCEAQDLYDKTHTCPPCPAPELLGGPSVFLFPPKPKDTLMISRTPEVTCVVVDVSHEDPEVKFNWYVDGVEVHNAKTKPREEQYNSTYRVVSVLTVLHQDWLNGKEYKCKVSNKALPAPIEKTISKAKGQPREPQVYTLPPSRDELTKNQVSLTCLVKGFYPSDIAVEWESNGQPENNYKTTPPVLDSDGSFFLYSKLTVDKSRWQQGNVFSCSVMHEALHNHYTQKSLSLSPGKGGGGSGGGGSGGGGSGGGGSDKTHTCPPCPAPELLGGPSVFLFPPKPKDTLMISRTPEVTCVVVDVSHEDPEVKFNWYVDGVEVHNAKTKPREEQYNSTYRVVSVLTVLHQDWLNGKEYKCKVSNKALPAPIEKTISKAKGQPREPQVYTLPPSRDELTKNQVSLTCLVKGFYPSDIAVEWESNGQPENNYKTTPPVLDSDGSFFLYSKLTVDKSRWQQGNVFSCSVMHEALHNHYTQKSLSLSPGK
For B1, the “nonprocessed FVIIIFc on SDS-PAGE (SYPRO Ruby and Coomassie staining)” value (“nonprocessed FVIIIFc on SDS-PAGE” for short) was “Kex2, PC7, PACE, and PC5 decrease nonprocessed Factor VIII”.
As to B2, the “nonprocessed FVIIIFc on SDS-PAGE” value is “Kex2, PC7, PACE, and PC5 decrease nonprocessed Factor VIII”.
Turning to B3, the “nonprocessed FVIIIFc on SDS-PAGE” value is “Kex2, PC7, PACE, and PC5 decrease nonprocessed Factor VIII”.
